Assay results as given in US9206239B2, “Treatment of cancers with immunostimulatory HIV Tat derivative polypeptides” (PIN Pharma, Inc., priority 2009, dated 2015).

How the values were obtained:
[1] = Toxicity observation in treated mice; type: in vivo; conditions: SC or IV administration of 40 ng, multiple trials and dosing schedules
[2] = test system: 4T1 cells; assay: Repeated dosing of Nani-P2 alternating with cyclophosphamide in 4T1 tumor-bearing mice; type: in vivo, BALB/c mice
Protocol: Four groups of 10 BALB/c mice were implanted with 1×10^4 4T1 cells SC into the mammary fat pad. Treatment was initiated when tumor diameters reached 4-5 mm, on day 10. Control mice were injected IV with PBS at 3 days intervals, while alternating treatment mice received 3 doses of drug every 3 days in rotating 10 day cycles. Tumor burden (tumor size mm^3) was calculated using a standard formula. CY: (cyclophosphamide alone) mice were injected IP weekly with 80 mg/kg per mouse beginning on day 10. Cy/Nani-P2: (cyclophosphamide first followed by Nani-P2) mice were first injected IP with cyclophosphamide (80 mg/kg) at 3 days intervals for three doses starting at day 10 and then injected IV with Nani-P2 (40 ng) at 3 days intervals for three doses in rotation. The cycle of 3 doses of CY followed by 3 doses of Nani-P2 was repeated until day 50. Nani-P2/CY: (Nani-P2 first followed by cyclophosphamide): mice were first injected IV with Nani-P2 (40 ng) at 3 day intervals for 3 doses starting on day 10 and then injected i.p. with cyclophosphamide at 3 day intervals in rotation. The cycle of 3 doses of Nani-P2 followed by 3 doses of CY was repeated until day 50.

[3] = test system: 4T1 lung metastases; assay: Detection of 4T1 lung metastases; type: in vivo, BALB/c mice; conditions: treated IV, established 4T1 tumors; p<0.01 vs PBS
From the text: Lungs were examined for 4T1 metastases as previously described (Pulaski B. et al. Cancer Res. 60:2710-2715, 2000). Primary 4T1 tumors that have been established for 2-3 weeks in BALB/c mice metastasize to the lungs in a very large majority of animals. Briefly, mice were sacrificed according to IACUC guidelines established at the start of the trials, the lungs removed, and tumor nodules on the surface of the lungs were enumerated with the naked eye by two independent investigators blinded to the treatment protocols.
To further investigate the efficacy of Nani-P2 against established and metastatic breast cancer, 4T1 cells were injected SC in the abdominal mammary gland of mice and treatment was delayed until such time that the tumors had metastasized to the lungs and averaged 3.5 mm in size (FIG. 8A, day 13), corresponding to a 2.4 cm or stage T2 human breast tumor. Mice were followed for tumor growth (FIG. 8A) and lung metastases (FIG. 8B). […] This corresponded to a less aggressive appearance of primary tumor, as well as lung metastases that were on average much smaller in size (FIG. 8B).

[4] = test system: Human monocytes; assay: CD86 expression on human monocytes cultured with Tat derivative; type: cell-based; conditions: human monocytes cultured 24-28 hours; compared with ISS (TLR) or LPS
Protocol: Human monocytes were cultured for 24-28 hours with a Tat derivative (Nani-P2), an immunostimulatory sequence (ISS) of a toll-like receptor (TLR) (FIG. 1) or lipopolysaccharide (LPS) (FIG. 2) and the cells were then washed and stained with fluorescent-labeled CD86.

[5] = day 50, Nani-P2 alternating with cyclophosphamide

B1: Nani-P2: HIV Tat derivative polypeptide, SEQ ID NO: 3; derivatized Tat amino terminus from an African Green Monkey variant SIV (protein)
chain: MDPKGEEDQDVSHQDLIKQYRKPRTACNNCYCKKCCFHCYACFLRKGLGITYHAFRTRRKKIASADRIPVPQQSISIRGRDSQTTQESQKKVEEQAKANLRISRKNLGDETRGPVGAGN
modifications: Nani-P2 modified HIV Tat sequence
notes: derivatized Tat amino terminus from an African Green Monkey variant SIV
With B1 the toxicity [1] was “no toxicity was observed”, the “survival benefit vs weekly cyclophosphamide” value ([2]; Nani-P2 bolus treatment alternating with cyclophosphamide, p=0.0001) was “highly statistically significant” and the “mice in partial remission” value [2, 5] was 9/10. The “mice in total remission” value [2, 5] was 3/10, the “average number of grossly visible tumor nodules in the lungs” value [3] was “seven” and the “expression of CD86” value [4] was “higher expression of CD86 than either ISS (TLR) or LPS”.
